Assay results as given in patent US9982287B2, “Enterokinase cleavable polypeptides” (Novo Nordisk A/S, priority 2013, dated 2018).
No end group written: not given here. *: point of attachment. Dnp = O=[N+]([O-])c1ccc(*)c([N+](=O)[O-])c1; 2Abz = Nc1ccccc1C(=O)O

Columns and labels:
[1] = molecular target: T1, Enterokinase bovine light chain variant (C112A, L134K, I135K) (Bos taurus, UniProt P98072, C912A/I935K/L934K); assay: EK-kinetics_2: initial rates of Enterokinase hydrolysis of full length GLP-1 with an N-terminal extension (UPLC); assay type: biochemical; conditions: Z1 = entire [Arg34]GLP-1(9-37), N-terminal extension Z2; slowest D4K site in this set = 100%; initial substrate 1 mg/ml, pH 8.5
T1 construct: the bovine light chain variant (C112A, L134K, I135K) as described in WO2013/092855A1; made in house
T1 sequence (P98072 801-1035 C912A/L934K/I935K): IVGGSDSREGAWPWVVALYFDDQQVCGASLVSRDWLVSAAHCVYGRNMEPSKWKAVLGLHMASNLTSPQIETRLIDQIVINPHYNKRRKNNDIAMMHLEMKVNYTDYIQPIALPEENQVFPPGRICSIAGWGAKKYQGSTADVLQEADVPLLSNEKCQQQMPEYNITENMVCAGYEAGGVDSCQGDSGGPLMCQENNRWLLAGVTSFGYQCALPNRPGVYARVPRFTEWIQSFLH
Protocol: Method: EK-kinetics_2 • EK-kinetics_2 was performed by calculating initial rates of hydrolysis of full length GLP-1 with an N-terminal extension. Substrate concentrations were in the range 150-300 μM. The hydrolysis reaction was started by adding an amount of enterokinase giving a final concentration of 9.5 nM. Samples were taken after 6.2 min, 18.7 min, 43.7 min, 86.3 min, 151.3 min, and 243.8 min and quenched by a 1+9 dilution into 5% acetic acid. A suitable method was used on a Waters iClass UPLC to separate and individually quantify remaining substrate and formed product on an analytical reversed-phase column by integrating peak areas. An equation of the following form was fitted to the raw data: […]
wherein t is time, cs0 is initial substrate concentration, cE is enzyme concentration, cPt is product concentration at time t, cSt is substrate concentration at time t, kcat and Km are hydrolysis parameters, and Ki is product inhibition constant. A constant Ki of 0.1 μM was used for all reactions. Initial hydrolysis rates were calculated based on the parameters determined for a initial substrate concentration of 1 mg/ml for all peptides. All reactions were performed in 50 mM Tris buffer, 1 mM EDTA, pH 8.5.
(§1) • The Enterokinase enzymes used for examples herein was the bovine light chain variant (C112A, L134K, I135K) as described in WO2013/092855A1.

[2] = molecular target: T1, Enterokinase bovine light chain variant (C112A, L134K, I135K); assay: EK-kinetics_1: initial rates of Enterokinase hydrolysis of intramolecularly quenched fluorogenic peptides; assay type: biochemical; conditions: Z1 = HAEGT, X6 absent; for Activity (%): relative Enterokinase cleavage rate of reference substrates: reference EK-sites, normalised to substrate with D4K site = 100%
Protocol: These peptide substrates have the following general structure: Z2*-X6-X5-X4-GDR-Z1* Formula (II) • wherein • X6-X5-X4 have the same meaning as in formula (I) (each being an amino acid, however X6 being optional), • Z2 is Lys(Dnp) and • Z1* is Z1-Lys(Abz)amide, where Z1 is as defined in formula (I). • SPPS_I was performed on a Multipep RSi synthesizer from Intavis Bioanalytical Instruments AG (Koeln, Germany) at 3-μmol scale in parallel using 2.5 fold excess of Fmoc-amino acids (300 mM in NMP with 300 mM Oxyma Pure®) relative to resin loading e.g. Rinkamide-Chematrix (0.5 mmol/g). Fmoc-deprotection was performed using 20% piperidine in NMP. Coupling was performed using 1:1:1:1 amino acid/Oxyma Pure®/DIC/collidine in NMP. All amino acids were “double or triple coupled”, meaning that after the first coupling (60 min), the resin is drained and more reagents are added (amino acid, Oxyma Pure®, DIC, and collidine), and the mixture allowed to react again (60 min).
Method: EK-Kinetics_1 • EK-kinetics_1 was performed by measuring initial rates of hydrolysis of intramolecularly quenched fluorogenic peptides: Lys(Dnp)-peptide-Lys(Abz)amide according to formula (II). After measuring the background fluorescence of peptides, generally at a substrate concentration in the range of 1 to 50 μM, initial rates of hydrolysis was measured by addition of purified enterokinase enzyme at a concentration enabling reading the initial rate of hydrolysis, i.e. less than 5% hydrolysis in 30 min. Typically an enzyme concentration of 1 to 10 nM may be used. After up to one hour of hydrolysis additional enzyme was added to enable measurement of the fluorescence level at total hydrolysis. Hydrolysis rates were generally measured in 50 mM MOPS buffer, 1 mM EDTA, pH 7.5 at 25° C. using a Perkin Elmer Enspire fluorescence plate reader using 320 nm for excitation and 420 nm for emission.
as §1

| Substance | Activity (%): relative Enterokinase cleavage rate of reference substrates [2] [%] | other results |
| --- | --- | --- |
| DVKPGQPLYDEGDR-[Arg34]GLP-1(9-37) (DVKPGQPLYDEGDREGTFTSDVSSYLEGQAAKEFIAWLVRGRG; Enterokinase cleavable polypeptide) [Example 119] |  | Activity (%): relative Enterokinase cleavage rate [1]: 707% |
| Lys(Dnp)-AEGDR-HAEGT-Lys(Abz)amide (K(Dnp)AEGDRHAEGTK(2Abz)-NH2; N-terminus assumed; SMILES C[C@H](NC(=O)[C@H](Cc1c[nH]cn1)NC(=O)[C@H](CCCNC(=N)N)NC(=O)[C@H](CC(=O)O)NC(=O)CNC(=O)[C@H](CCC(=O)O)NC(=O)[C@H](C)NC(=O)[C@@H](N)CCCCNc1ccc([N+](=O)[O-])cc1[N+](=O)[O-])C(=O)N[C@@H](CCC(=O)O)C(=O)NCC(=O)N[C@H](C(=O)N[C@@H](CCCCNC(=O)c1ccccc1N)C(N)=O)[C@@H](C)O) [Example 1] |  | Activity (%): relative Enterokinase cleavage rate ([2]; initial rate normalised to substrate with D4K site = 100%): 382% |
| Lys(Dnp)-IMGDRHAEGT-Lys(Abz)amide (K(Dnp)IMGDRHAEGTK(2Abz)-NH2; N-terminus assumed; SMILES CC[C@H](C)[C@H](NC(=O)[C@@H](N)CCCCNc1ccc([N+](=O)[O-])cc1[N+](=O)[O-])C(=O)N[C@@H](CCSC)C(=O)NCC(=O)N[C@@H](CC(=O)O)C(=O)N[C@@H](CCCNC(=N)N)C(=O)N[C@@H](Cc1c[nH]cn1)C(=O)N[C@@H](C)C(=O)N[C@@H](CCC(=O)O)C(=O)NCC(=O)N[C@H](C(=O)N[C@@H](CCCCNC(=O)c1ccccc1N)C(N)=O)[C@@H](C)O) [Example 111] | 125 |  |
| Lys(Dnp)-INDDRHAEGT-Lys(Abz)amide (K(Dnp)INDDRHAEGTK(2Abz)-NH2; N-terminus assumed; SMILES CC[C@H](C)[C@H](NC(=O)[C@@H](N)CCCCNc1ccc([N+](=O)[O-])cc1[N+](=O)[O-])C(=O)N[C@@H](CC(N)=O)C(=O)N[C@@H](CC(=O)O)C(=O)N[C@@H](CC(=O)O)C(=O)N[C@@H](CCCNC(=N)N)C(=O)N[C@@H](Cc1c[nH]cn1)C(=O)N[C@@H](C)C(=O)N[C@@H](CCC(=O)O)C(=O)NCC(=O)N[C@H](C(=O)N[C@@H](CCCCNC(=O)c1ccccc1N)C(N)=O)[C@@H](C)O) [Example 112] | 126 |  |
